For data set [1], the target named is Sox2 full length (Homo sapiens) (UniProt P48431). As to the kind of experiment: FP. The settings on record: 10 mM Tris-HEPES pH 7.5, 8% Ficoll, 0.05% NP-40, 135 mM KCl, 15 mM NaCl, 1 mM DTT, 0.1 mg/mL BSA; 2 nM DNA or 3 nM RNA; low values mean tight binding.
Data set [2] has as its target Sox2-HMG (thrombin cleaved) (Homo sapiens) (UniProt P48431). As to the kind of experiment: FP. The settings on record: 10 mM Tris-HEPES pH 7.5, 8% Ficoll, 0.05% NP-40, 135 mM KCl, 15 mM NaCl, 1 mM DTT, 0.1 mg/mL BSA; 2 nM DNA or 3 nM RNA; low values mean tight binding.
In the next data set the target is Sox2-HMG (Homo sapiens) (UniProt P48431). As to the kind of experiment: fluorescence anisotropy. The settings on record: 10 mM Tris-HEPES pH 7.5, 135 mM KCl, 15 mM NaCl, 1 mM DTT, 8% Ficoll, 0.05% NP-40, 0.1 mg/mL BSA; 2 nM DNA or 3 nM RNA; room temperature (stated for …). For orientation: Polarisation of emitted light reports the rotation of a fluorescent probe.
Sox2-HMG (Homo sapiens), sequence (P48431 40-123): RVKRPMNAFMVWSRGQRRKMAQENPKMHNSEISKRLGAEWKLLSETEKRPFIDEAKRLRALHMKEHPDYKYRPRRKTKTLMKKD
Data set [3] addresses Sox2 full length (Homo sapiens) (UniProt P48431). The data set is described as follows: fluorescence anisotropy. The settings on record: 10 mM Tris-HEPES pH 7.5, 135 mM KCl, 15 mM NaCl, 1 mM DTT, 8% Ficoll, 0.05% NP-40, 0.1 mg/mL BSA; 2 nM DNA or 3 nM RNA; room temperature (stated for …).

Drawing on article PMC7156710, this text covers Kd and binding signal (fold weaker than FGF4) for three substances.

Sox2 full length (Homo sapiens), sequence (P48431 whole entry): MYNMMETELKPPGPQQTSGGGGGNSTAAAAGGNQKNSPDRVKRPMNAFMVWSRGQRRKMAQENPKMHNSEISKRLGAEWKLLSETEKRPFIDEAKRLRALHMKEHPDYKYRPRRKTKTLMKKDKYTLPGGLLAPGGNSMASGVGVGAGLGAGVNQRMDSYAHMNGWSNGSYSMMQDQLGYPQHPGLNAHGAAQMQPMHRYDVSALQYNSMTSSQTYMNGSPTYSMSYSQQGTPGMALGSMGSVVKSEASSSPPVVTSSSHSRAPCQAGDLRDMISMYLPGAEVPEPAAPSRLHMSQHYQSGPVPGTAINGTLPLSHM
Sox2-HMG (thrombin cleaved) (Homo sapiens), sequence (P48431 other isoform, or with tags, fused parts or gaps): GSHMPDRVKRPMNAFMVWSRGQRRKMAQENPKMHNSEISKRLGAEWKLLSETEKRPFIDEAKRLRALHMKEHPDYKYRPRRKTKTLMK

On to “GGAAGAAGUGAAAUCACUAUAUUUAGAAACGAAUGCUACCAUCCCACCCCAACUACAUGUUCAGGUUAAAUGCGUGCACAUCCUGGUAGCUGGAACAUCUGUUUCUAGCUUGUUGUUCCUCUUGGCUGCUUUUCAAUUGGAUUUCCUCGAGCAGGUCCCAGGCUUGUCACUGCAGCCAGGGUCUGUUAACCAUCACCACUGGUUCUACAUUAAGUAGGAGGUUCAGGGCUAAGCUAAUAACUCGCCUGCCUUUCUGACUGAUCACAGUGAUGUUCGCCGUGGCCACUUAUCAUGCGGGCUCCUUUGGGAGGGUGCUCUUCUUUGUCUGUACCUCUGGGUGGAAAGGGCGAAUUC [ES2 lncRNA 1-354]”, for which the values for the Kd (in data set [1]; in data set [2]; with Sox2-HMG (Homo sapiens)) were 0.0175 µM, 0.0256 µM and 0.026 µM, respectively.
For the substance dsDNA w/o binding site, in data set [3], the binding signal (fold weaker than FGF4) is above 200.
On to ssDNA with consensus site, for which, in data set [3], the binding signal (fold weaker than FGF4) was above 200.

The term Kd denotes the free concentration of one partner at which half of the binding sites on the other are occupied at equilibrium, for simple one-to-one binding.
